Data from PMC8313675, “Molecular insights into the human ABCB6 transporter” (Cell Discovery, 2021).
Positions count from the first letter of the chain named. Names and notes keep the numbering of the source.

B1: human ABCB6 (hABCB6), wild type, C-terminal Strep-tag (natural protein, UniProt Q9NP58 1-842, looked up)
chain: MVTVGNYCEAEGPVGPAWMQDGLSPCFFFTLVPSTRMALGTLALVLALPCRRRERPAGADSLSWGAGPRISPYVLQLLLATLQAALPLAGLAGRVGTARGAPLPSYLLLASVLESLAGACGLWLLVVERSQARQRLAMGIWIKFRHSPGLLLLWTVAFAAENLALVSWNSPQWWWARADLGQQVQFSLWVLRYVVSGGLFVLGLWAPGLRPQSYTLQVHEEDQDVERSQVRSAAQQSTWRDFGRKLRLLSGYLWPRGSPALQLVVLICLGLMGLERALNVLVPIFYRNIVNLLTEKAPWNSLAWTVTSYVFLKFLQGGGTGSTGFVSNLRTFLWIRVQQFTSRRVELLIFSHLHELSLRWHLGRRTGEVLRIADRGTSSVTGLLSYLVFNVIPTLADIIIGIIYFSMFFNAWFGLIVFLCMSLYLTLTIVVTEWRTKFRRAMNTQENATRARAVDSLLNFETVKYYNAESYEVERYREAIIKYQGLEWKSSASLVLLNQTQNLVIGLGLLAGSLLCAYFVTEQKLQVGDYVLFGTYIIQLYMPLNWFGTYYRMIQTNFIDMENMFDLLKEETEVKDLPGAGPLRFQKGRIEFENVHFSYADGRETLQDVSFTVMPGQTLALVGPSGAGKSTILRLLFRFYDISSGCIRIDGQDISQVTQASLRSHIGVVPQDTVLFNDTIADNIRYGRVTAGNDEVEAAAQAAGIHDAIMAFPEGYRTQVGERGLKLSGGEKQRVAIARTILKAPGIILLDEATSALDTSNERAIQASLAKVCANRTTIVVAHRLSTVVNADQILVIKDGCIVERGRHEALLSRGGVYADMWQLQQGQEETSEDTKPQTMER
notes: ABCB6, Homo sapiens, 842-amino acid protein; theoretical MW 94 kDa; TMD0 (residues 1-244) is in the protein but obscure in the map; PDB and EMDB ids are assigned by the order of the data availability sentence; also called WT hABCB6; hABCB6-WT; not shown: Strep-tag, C-terminal, kept
B2: human ABCB6 E752Q mutant (hABCB6[EQ]), C-terminal Strep-tag (natural protein, UniProt Q9NP58 1-842, looked up)
chain: B1 chain with E752Q
notes: ABCB6, Homo sapiens, 842-amino acid protein, with the Walker B mutation E752Q; Same construct as m1 with E752Q; Incubated with 5 mM ATP-Mg2+ (and 20 uM PPIX) before grid preparation; PDB and EMDB ids are assigned by the order of the data availability sentence; also called hABCB6 E752Q; not shown: Strep-tag, C-terminal, kept

Experiments:
[1] = target: the molecule itself; assay: cryo-EM structure; apo-state WT hABCB6 in POPC:POPE (3:1) MSP2N2 nanodiscs, inward-facing, C2 symmetry, 3.6 A
[2] = target: the molecule itself; assay: cryo-EM structure; hABCB6[EQ] in POPC:POPE MSP2N2 nanodiscs, incubated with 5 mM ATP-Mg2+ for 30 min at 37 C, occluded conformation, C2 symmetry, 3.5 A

Row | Protein | binding result [1] | binding result [2]
1 | B1 | binds | –
2 | B2 | – | binds
